In patent publication US6887705B1, “Tyrosine phosphorylated cleavage furrow-associated proteins (PSTPIPs)” (Genentech, Inc., priority 1997, dated 2005):

How the values were obtained:
Test in all cases: in vitro translated PTP HSCF mutant precipitated with 1 or 10 µg/ml GST PST PIP
[1] = biological target: T1, PTP HSCF with R436 mutated to alanine, HA tagged (UniProt Q61152 1-453)
T1 construct: range 1-453; also called HSCF R436
T1 sequence (looked up): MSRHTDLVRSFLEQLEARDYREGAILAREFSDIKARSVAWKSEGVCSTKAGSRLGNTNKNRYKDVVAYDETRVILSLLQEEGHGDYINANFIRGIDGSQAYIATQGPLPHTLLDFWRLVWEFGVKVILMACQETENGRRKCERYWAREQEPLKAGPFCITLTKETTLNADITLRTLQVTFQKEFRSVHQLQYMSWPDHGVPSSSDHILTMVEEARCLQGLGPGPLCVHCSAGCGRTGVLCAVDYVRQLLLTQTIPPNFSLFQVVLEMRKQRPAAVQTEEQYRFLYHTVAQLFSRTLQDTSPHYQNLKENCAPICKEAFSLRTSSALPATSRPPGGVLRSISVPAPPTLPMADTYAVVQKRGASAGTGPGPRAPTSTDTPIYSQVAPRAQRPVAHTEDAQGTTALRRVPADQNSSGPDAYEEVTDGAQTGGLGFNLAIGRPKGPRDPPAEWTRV
Description: (§1) Multiple bands precipitated with the GST PST PIP fusion protein are apparently C-terminal proteolyzed products of the PTP. Also shown are GST PST PIP precipitations (10 μg/ml) performed on a double mutant of PTP HSCF (R+W) with both residues $R444$ and $W450$ mutated to alanine (bottom panel FIG. 14 A/2). B. COS cells were co-transfected with a 10:1 ratio of plasmids encoding hemagglutinin (HA) tagged PTP HSCF with the illustrated alanine substitutions or a mutant of PTP HSCF deleted for the C-terminal 24 amino acids (PTP $HSCFD24$) and wild type PST PIP with a C-terminal FLAG epitope tag, respectively. Transfected cell lysates were immunoprecipitated with anti-HA monoclonal antibodies and the precipitates were blotted with anti-PST PIP polyclonal antibody to detect the relative amounts of PST PIP complexed with either wild type or different mutant forms of PTP HSCF. Lysates were also immunoprecipitated with anti-HA antibody and blotted with the same antibody to insure equal expression of PTP HSCF. Equal expression of PSTPIP was determined by immunoprecipitating lysates with anti-FLAG monoclonal antibody and blotting with anti-PST PIP polyclonal antibody.
(§2) In vitro binding analyses between various PTP HSCF and PST PIP constructs were performed as previously described (Spencer et al, (1997), supra). Briefly, plasmids were transcribed and translated in vitro using the TnT Rabbit Reticulocyte Lysate System (Promega). Samples were diluted in 50 mM HEPES, pH 7.2, 1% triton X-100, 10% glycerol, 100 mM NaCl, and 2 µg/ml each of leupeptin, pepstatin, aprotinin and PMSF (lysis buffer). Samples were than reacted with GST fusion proteins at various concentrations, and the bound proteins were centrifuged using glutathione-sepharose beads and analyzed on SDS polyacrylamide gels. C-terminally-derived peptide inhibition studies were performed by incubating the GST fusion protein binding reactions in the presence of 10 µg/ml of the indicated peptides. Peptides were produced by FMOC-protected amino acids as previously described (Spencer et al, (1997), supra). In vivo interactions between various forms of PTP HSCF and PST PIP were also performed as previously described (Spencer et al, (1997), supra).

[2] = biological target: T2, PTP HSCF with P440 mutated to alanine, HA tagged (UniProt Q61152 1-453)
T2 construct: range 1-453; also called HSCF P440
T2 sequence (looked up): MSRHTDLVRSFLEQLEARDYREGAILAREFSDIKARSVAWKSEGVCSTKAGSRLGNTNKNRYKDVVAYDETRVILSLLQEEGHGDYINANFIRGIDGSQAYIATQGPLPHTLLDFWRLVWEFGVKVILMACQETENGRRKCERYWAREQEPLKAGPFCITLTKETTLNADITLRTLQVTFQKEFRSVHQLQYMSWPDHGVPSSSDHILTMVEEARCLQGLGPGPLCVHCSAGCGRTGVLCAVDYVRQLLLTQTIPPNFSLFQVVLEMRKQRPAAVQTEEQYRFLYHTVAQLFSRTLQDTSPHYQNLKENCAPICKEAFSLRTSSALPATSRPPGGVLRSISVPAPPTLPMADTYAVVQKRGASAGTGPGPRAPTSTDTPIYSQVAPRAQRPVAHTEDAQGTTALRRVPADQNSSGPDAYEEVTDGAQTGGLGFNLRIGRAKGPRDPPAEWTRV
Description: as §1, §2

[3] = biological target: T3, PTP HSCF with P443 mutated to alanine, HA tagged (UniProt Q61152 1-453)
T3 construct: range 1-453; also called HSCF P443
T3 sequence (looked up): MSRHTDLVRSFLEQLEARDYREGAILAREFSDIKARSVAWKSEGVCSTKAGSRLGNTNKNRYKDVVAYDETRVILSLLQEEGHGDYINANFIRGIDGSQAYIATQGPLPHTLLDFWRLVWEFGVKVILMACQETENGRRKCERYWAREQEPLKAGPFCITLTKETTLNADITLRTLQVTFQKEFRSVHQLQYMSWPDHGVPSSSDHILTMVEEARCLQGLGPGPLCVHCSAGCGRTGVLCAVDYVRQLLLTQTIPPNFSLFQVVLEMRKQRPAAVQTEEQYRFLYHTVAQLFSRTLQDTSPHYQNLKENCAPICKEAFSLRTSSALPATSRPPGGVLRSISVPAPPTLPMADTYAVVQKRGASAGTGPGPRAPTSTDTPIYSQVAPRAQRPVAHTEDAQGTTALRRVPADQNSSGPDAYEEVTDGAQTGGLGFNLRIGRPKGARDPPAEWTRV
Description: as §1, §2

[4] = biological target: T4, PTP HSCF with W450 mutated to alanine, HA tagged (UniProt Q61152 1-453)
T4 construct: range 1-453; also called HSCF W450
T4 sequence (looked up): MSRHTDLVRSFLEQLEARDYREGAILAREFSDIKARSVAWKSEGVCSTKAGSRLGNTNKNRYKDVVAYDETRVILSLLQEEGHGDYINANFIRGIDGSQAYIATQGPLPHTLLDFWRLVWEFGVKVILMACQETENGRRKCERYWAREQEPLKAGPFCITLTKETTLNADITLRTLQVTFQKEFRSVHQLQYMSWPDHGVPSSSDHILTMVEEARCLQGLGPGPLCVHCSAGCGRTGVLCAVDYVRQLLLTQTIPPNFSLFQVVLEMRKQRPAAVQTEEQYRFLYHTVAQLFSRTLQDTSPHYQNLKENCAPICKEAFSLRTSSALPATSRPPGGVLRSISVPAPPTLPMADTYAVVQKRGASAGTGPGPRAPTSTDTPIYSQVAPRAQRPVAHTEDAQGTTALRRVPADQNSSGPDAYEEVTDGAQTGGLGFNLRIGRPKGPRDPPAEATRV
Description: as §1, §2

- binding result [1]: binds
- binding result [2]: binds
- binding result [3]: binds
- binding result [4]: binds
B1: GST-PSTPIP (GST fusion of full-length PSTPIP, amino acids 2-415) (other)
chain: MAQLQFRDAFWCRDFTAHTGYEVLLQRLLDGRKMCKDVEELLRQRAQAEERYGKELVQIARKAGGQTEMNSLRTSFDSLKQQTENVGSAHIQLALALREELRSLEEFRERQKEQRKKYEAIMDRVQKSKLSLYKKTMESKKAYDQKCRDADDAEQAFERVSANGHQKQVEKSQNKAKQCKESATEAERVYRQNIEQLERARTEWEQEHRTTCEAFQLQEFDRLTILRNALWVHCNQLSMQCVKDDELYEEVRLTLEGCDVEGDINGFIQSKSTGREPPAPVPYQNYYDREVTPLIGSPSIQPSCGVIKRFSGLLHGSPKTTPSAPAASTETLTPTPERNELVYASIEVQATQGNLNSSAQDYRALYDYTAQNSDELDISAGDILAVILEGEDGWWTVERNGQRGFVPGSYLEKL
notes: Made in DH5-alpha bacteria from pGEX4T-2; also called GST-full-length PSTPIP; GST PTP PIP; not shown: glutathione S-transferase encoded by pGEX-4T-2 (Pharmacia)
